Source: PMC5678773

Biological target: T1, CIB1 (cryptochrome-interacting basic-helix-loop-helix) fused with the GAL4 DNA-binding domain (Arabidopsis) (UniProt Q8GY61)
T1 sequence: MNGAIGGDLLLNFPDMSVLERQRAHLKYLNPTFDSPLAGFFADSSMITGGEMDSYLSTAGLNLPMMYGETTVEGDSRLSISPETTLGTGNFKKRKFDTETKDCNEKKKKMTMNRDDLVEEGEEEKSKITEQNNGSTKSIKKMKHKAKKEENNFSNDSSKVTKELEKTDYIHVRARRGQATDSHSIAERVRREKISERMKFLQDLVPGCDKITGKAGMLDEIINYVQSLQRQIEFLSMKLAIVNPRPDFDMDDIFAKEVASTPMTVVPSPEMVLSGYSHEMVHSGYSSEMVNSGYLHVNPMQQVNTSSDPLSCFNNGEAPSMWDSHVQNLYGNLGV

amiR-D1 transcript (gene downstream of the UAS) by quantitative PCR in the transgenic alga, after blue light irradiation against before (red light culture): > 14 fold
Substance: CRY2 (cryptochrome 2) fused with the VP16 transcription activation domain (from UniProt Q96524 1-612) (natural protein)
